{
  "source": "patent US20090221680",
  "molecular_target": "thrombin (alpha-thrombin) (Homo sapiens) (UniProt P00734+P00734)",
  "experiment": "filter",
  "data": [
    {"sequence": "ACTGCCTAGGTTGGGTAGGGTGGTGGCAGT [ARC2676]", "values": [
      {"measurement": "Kd", "setting": "deoxyinosine at 13 [13]", "value": 0.698, "unit": "nM"}
    ]},
    {"sequence": "ACTGCCTAGGTTGGGTAGGGTGGTGGCAGT [ARC2683]", "values": [
      {"measurement": "Kd", "setting": "deoxyinosine at 23 [23]", "value": 0.151, "unit": "nM"}
    ]},
    {"sequence": "ACTGCCTAGGTTGGGTAGGGTGGTGGCAGT [ARC2695]", "values": [
      {"measurement": "Kd", "setting": "2'-OMe inosine at 20, rest DNA [20]", "value": 2.08, "unit": "nM"}
    ]},
    {"sequence": "ACTGCCTAGGTTGGGTAGGGTGGTGGCAGT [ARC2685]", "values": [
      {"measurement": "Kd", "setting": "deoxyinosine at 26 [26]", "value": 0.226, "unit": "nM"}
    ]},
    {"sequence": "ACTGCCTAGGTTGGGTAGGGTGGTGGCAGT [ARC2691]", "values": [
      {"measurement": "Kd", "setting": "2'-OMe inosine at 14, rest DNA [14]", "value": 2.28, "unit": "nM"}
    ]},
    {"sequence": "ACTGCCTAGGTTGGGTAGGGTGGTGGCAGT [ARC2684]", "values": [
      {"measurement": "Kd", "setting": "deoxyinosine at 25 [25]", "value": 0.188, "unit": "nM"}
    ]},
    {"sequence": "ACTGCCTAGGTTGGGTAGGGTGGTGGCAGT [ARC2680]", "values": [
      {"measurement": "Kd", "setting": "deoxyinosine at 19 [19]", "value": 0.24, "unit": "nM"}
    ]},
    {"sequence": "ACTGCCTAGGTTGGGTAGGGTGGTGGCAGT [ARC2675]", "values": [
      {"measurement": "Kd", "setting": "deoxyinosine at 10 [10]", "value": 2.03, "unit": "nM"}
    ]},
    {"sequence": "ACTGCCTAGGTTGGGTAGGGTGGTGGCAGT [ARC2674]", "values": [
      {"measurement": "Kd", "setting": "deoxyinosine at 9 [9]", "value": 0.452, "unit": "nM"}
    ]},
    {"sequence": "ACTGCCTAGGTTGGGTAGGGTGGTGGCAGT [ARC2686]", "values": [
      {"measurement": "Kd", "setting": "deoxyinosine at 29 [29]", "value": 0.189, "unit": "nM"}
    ]},
    {"sequence": "ACTGCCTAGGTTGGGTAGGGTGGTGGCAGT [ARC2699]", "values": [
      {"measurement": "Kd", "setting": "2'-OMe inosine at 26, rest DNA [26 = 2'-OMe inosine (written as parent base G), rest DNA]", "value": 0.128, "unit": "nM"}
    ]},
    {"sequence": "ACTGCCTAGGTTGGGTAGGGTGGTGGCAGT [ARC2679]", "values": [
      {"measurement": "Kd", "setting": "deoxyinosine at 18 [18]", "value": 0.355, "unit": "nM"}
    ]},
    {"sequence": "ACTGCCTAGGTTGGGTAGGGTGGTGGCAGT [ARC2698]", "values": [
      {"measurement": "Kd", "setting": "2'-OMe inosine at 25, rest DNA [25 = 2'-OMe inosine (written as parent base G), rest DNA]", "value": 0.165, "unit": "nM"}
    ]},
    {"sequence": "ACTGCCTAGGTTGGGTAGGGTGGTGGCAGT [ARC2682]", "values": [
      {"measurement": "Kd", "setting": "deoxyinosine at 22 [22]", "value": 1.3, "unit": "nM"}
    ]},
    {"sequence": "ACTGCCTAGGTTGGGTAGGGTGGTGGCAGT [ARC2681]", "values": [
      {"measurement": "Kd", "setting": "deoxyinosine at 20 [20]", "value": 0.334, "unit": "nM"}
    ]},
    {"sequence": "ACTGCCTAGGTTGGGTAGGGTGGTGGCAGT [ARC2677]", "values": [
      {"measurement": "Kd", "setting": "deoxyinosine at 14 [14]", "value": 0.199, "unit": "nM"}
    ]},
    {"sequence": "ACTGCCTAGGTTGGGTAGGGTGGTGGCAGT [ARC2673]", "values": [
      {"measurement": "Kd", "setting": "deoxyinosine at 4 [deoxyinosine at 4 (parent base G)]", "value": 0.207, "unit": "nM"}
    ]},
    {"sequence": "ACTGCCTAGGTTGGGTAGGGTGGTGGCAGT [ARC2697]", "values": [
      {"measurement": "Kd", "setting": "2'-OMe inosine at 23, rest DNA [23]", "value": 1.56, "unit": "nM"}
    ]},
    {"sequence": "ACTGCCTAGGTTGGGTAGGGTGGTGGCAGT [ARC2678]", "values": [
      {"measurement": "Kd", "setting": "deoxyinosine at 15 [15]", "value": 1.43, "unit": "nM"}
    ]},
    {"sequence": "ACTGCCTAGGTTGGGTAGGGTGGTGGCAGT [ARC2687]", "values": [
      {"measurement": "Kd", "setting": "2'-OMe inosine at 4, rest DNA [4]", "value": 0.22, "unit": "nM"}
    ]},
    {"sequence": "ACTGCCTAGGTTGGGTAGGGTGGTGGCAGT [ARC2692]", "values": [
      {"measurement": "Kd", "setting": "2'-OMe inosine at 15, rest DNA [15]", "value": 1.84, "unit": "nM"}
    ]},
    {"sequence": "ACTGCCTAGGTTGGGTAGGGTGGTGGCAGT [ARC2700]", "values": [
      {"measurement": "Kd", "setting": "2'-OMe inosine at 29, rest DNA [29 = 2'-OMe inosine (written as parent base G), rest DNA]", "value": 0.046, "unit": "nM"}
    ]}
  ]
}
